Source: US20160319027A1

Molecular target: human TrkA on TF-1 cells (human), P04629
Assay: cell-based or functional assay

human TrkA on TF-1 cells (human), P04629, sequence (P04629 33-796): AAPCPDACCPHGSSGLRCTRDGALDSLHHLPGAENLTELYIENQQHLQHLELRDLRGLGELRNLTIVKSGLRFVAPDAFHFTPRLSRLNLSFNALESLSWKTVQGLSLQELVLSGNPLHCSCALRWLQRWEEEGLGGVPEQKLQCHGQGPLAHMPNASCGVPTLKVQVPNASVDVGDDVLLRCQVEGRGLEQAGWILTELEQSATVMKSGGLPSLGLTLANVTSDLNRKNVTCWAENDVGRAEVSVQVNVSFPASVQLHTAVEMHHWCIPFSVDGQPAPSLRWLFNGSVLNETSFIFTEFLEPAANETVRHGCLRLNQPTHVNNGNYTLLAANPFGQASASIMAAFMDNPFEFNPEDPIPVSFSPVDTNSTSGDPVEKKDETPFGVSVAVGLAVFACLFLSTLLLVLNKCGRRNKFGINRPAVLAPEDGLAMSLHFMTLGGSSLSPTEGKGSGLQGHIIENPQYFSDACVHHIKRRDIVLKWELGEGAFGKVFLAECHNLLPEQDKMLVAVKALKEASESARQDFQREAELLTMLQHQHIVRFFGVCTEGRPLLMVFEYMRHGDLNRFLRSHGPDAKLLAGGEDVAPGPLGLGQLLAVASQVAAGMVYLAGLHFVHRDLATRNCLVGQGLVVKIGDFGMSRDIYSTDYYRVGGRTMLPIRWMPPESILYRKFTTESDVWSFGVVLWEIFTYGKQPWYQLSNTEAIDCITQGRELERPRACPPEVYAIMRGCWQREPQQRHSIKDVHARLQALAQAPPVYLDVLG

TF-1 cell proliferation assay IC50 (5 ng/ml human beta-NGF): 0.23 µg/mL
B1: MNAC13 mouse antibody (antibody, mouse IgG1, kappa)
heavy: EVKLVESGGGLVQPGGSLKLSCAASGFTFSTYTMSWARQTPEKRLEWVAYISKGGGSTYYPDTVKGRFTISRDNAKNTLYLQMSSLKSEDTALYYCARGAMYGNDFFYPMDYWGQGTSVTVSSKTTPPSVYPLAPGSAAQTNSMVTLGCLVKGYFPEPVTVTWNSGSLSSGVHTFPAVLESDLYTLSSSVTVPSSPRPSETVTCNVAHPASSTKVDKKIVPRDCGCKPCICTVPEVSSVFIFPPKPKDVLTITLTPKVTCVVVDISKDDPEVQFSWFVDDVEVHTAQTQPREEQFNSTFRSVSELPIMHQDWLNGKEFKCRVNSAAFPAPIEKTISKTKGRPKAPQVYTIPPPKEQMAKDKVSLTCMITDFFPEDITVEWQWNGQPAENYKNTQPIMNTNGSYFVYSKLNVQKSNWEAGNTFTCSVLHEGLHNHHTEKSLSHSPGK
light: QIVLTQSPAIMSASLGEEITLTCSASSSVSYMHWYQQKSGTSPKLLIYTTSNLASGVPSRFSGSGSGTFYSLTISSVEAEDAADYYCHQWSSYPWTFGGGTKLEIKADAAPTVSIFPPSSEQLTSGGASVVCFLNNFYPKDINVKWKIDGSERQNGVLNSWTDQDSKDSTYSMSSTLTLTKDEYERHNSYTCEATHKTSTSPIVKSFNRNEC
